For 32 variants, self-cleavage results are on record in the RNAGym collection of RNA variant scans (doi:10.7554/elife.80360).

First the molecules themselves.
B1: HDV Ribozyme (parent)
chain: GGCCGGCAUGGUCCCAGCCUCCUCGCUGGCGCCGGCUGGGCAACAUUCCGAGGGGACCGUCCCCUCGGUAAUGGCGAAUGGGACCCA

Variants of B1 are the subject of the data set. The data set is described as follows: self-cleavage, relative activity (ratio to wild type); higher = more cleavage; co-transcriptional.
For GGCCUGCAUGGUCCCAGCCUCCUCGCUGGCGCCGGCUGGGCAACAUUCCGAGGGGACCGUCCCCUCGGUAAUGGCGAAGGGGACCCA [G5U U79G], the self-cleavage was 0. With GGCCGGCAUGGUCCCAGCCUUCUCGCUGGCGCCGGCUGGGCAACAUUCCGAGGGGGCCGUCCCCUCGGUAAUGGCGAAUGGGACCCA [C21U A56G] the figure was 0.315; with GGCCGGCAUGGUCCCAGCCUCCUAGCUGGCGCCGGCUGGGCAACAUGCCGAGGGGACCGUCCCCUCGGUAAUGGCGAAUGGGACCCA [C24A U47G], 0.434; with GGCCGGCAUGGUCCCAGCCUCCUCGCUGGCGCCGGCUGGGCAACAUUCCGAGGGGCCCGUCCCCUCGGUAAUGGCGAAUGGGACCCG [A56C A87G], 0.846. As for GGCCGGCAUGGUCCCACCCUCCUCGCUGGCGCCGGCUGGGCAACAUUCCGAGGGGACCGUCCCCUCGGUAAUGGCGAAUGGGACCAA [G17C C86A], the self-cleavage was determined as 0.365. As for GGCCGGCAUGGUCCCAGCCUCCUCGCUGGCGCCGGCUGGUCAACAUUCCGAGGGGACUGUCCCCUCGGUAAUGGCGAAUGGGACCCA [G40U C58U], the figure is 0.669.

For GGCCGGUAUGGUCCCAGCCUCCUCGCUGGCGCCGGCUGGGCAACAUUCCGAGGGGACCGUCCCCCCGGUAAUGGCGAAUGGGACCCA [C7U U65C], the self-cleavage came out at 0.914.

Turning to GGCCGGCAUGGUCGCAGCCUCCUCGCUGGCGCCGGCUGGGCAACAUUCCGAGGGGACCUUCCCCUCGGUAAUGGCGAAUGGGACCCA [C14G G59U], the self-cleavage came out at 0.745. As for GGCCGGCAUGGCCCCAGCCUCCUCGCUGGCGCCGGCUGGGCAACAUUCCGAGGGGACCGUCCCGUCGGUAAUGGCGAAUGGGACCCA [U12C C64G], the figure is 0.308; as for GGCCGGCAUGGUCCCAGCCUCCUCGCUGGCGCCGGCUGGGCAACAUUCUGAGGGGACCGUCCCCUUGGUAAUGGCGAAUGGGACCCA [C49U C66U], 0.899. With GGCCGGCAAGGUCCCAGCCUCCUCGCUGGCGCCGGCUGGGCAACAUUCCGAGGGGACCGUCCCCUCGGUAAUGGCGGAUGGGACCCA [U9A A77G] the figure was 0.751; with GGCCGGCAUGGUCCCAGCCUCCUCGCUGGCGCCGGCUGGGCAACAUUCGGAGGGGAGCGUCCCCUCGGUAAUGGCGAAUGGGACCCA [C49G C57G], 0.997; with GGCCGGCAUGGUCCCAGCCUCCUCGCUGGCGCCGGCUGGGCAACAUUCCGAGGGGACCGUCCCCUCGGUAAUGGCGAACAGGACCCA [U79C G80A], 0.129. Turning to GGCCGGCAUGGUCCCAGCCUCCUCGCUGGCGCCGGCUGGGCAUCAUUGCGAGGGGACCGUCCCCUCGGUAAUGGCGAAUGGGACCCA [A43U C48G], the self-cleavage was determined as 0.435.

For GGCCGGCAUGGUCCCAGCCUCCUCGCUGGCGCCGGCUGGGCAACAUUCCGAGGGGACCGUCCCCCCGGUAAUGACGAAUGGGACCCA [U65C G74A], the self-cleavage was found to be 0.456.

In the case of GGCCGGCAUGGUCCCAGCCUCCUCGCUGGCGCCGGCUGGGUAACAUUCCGAGGGGACCGUCCCCUCGGUAAUGGCGAAUGGAACCCA [C41U G82A], the self-cleavage was found to be 0.246. As for GGCCGGCAUGGUCCCAGCCUCCUCGCUUGCGCCGGCUGGGCAACAUUCCGAGGGGACCGUCCCCACGGUAAUGGCGAAUGGGACCCA [G28U U65A], the figure is 0.0339; as for GGCCGGCAUGGUCCCAGCCUCCUCGCUGGCGCCGGCUGUGCAACAUUUCGAGGGGACCGUCCCCUCGGUAAUGGCGAAUGGGACCCA [G39U C48U], 0.594. As for GGCCGGCAUGGUCACAGCCUCCUCGCUGGCGCCGGCUGGGCAACAUUCCGAGGGGACCGUCCCCUCGGUAAUGGCGAAUGGGACCGA [C14A C86G], the self-cleavage is 0.378. With GGCCGGCAUGGUCCCAGCCUCCUAGCUGGCGCCGGCUGGGCAACCUUCCGAGGGGACCGUCCCCUCGGUAAUGGCGAAUGGGACCCA [C24A A45C] the figure was 0.19; with GGCCGGCAUGGUCCCAGCCUCCUCGCUGGCGCCGGCUGGGCAACAUGCCGAGGGGACCGUCCCCUCGGUAAUGGCGAAUGGGACUCA [U47G C85U], 1.21; with GGCCGGCAUGGUCCCAGCCUCCUCGCUGGCGCCGGCUUGGCAACAUUGCGAGGGGACCGUCCCCUCGGUAAUGGCGAAUGGGACCCA [G38U C48G], 0.156. GGCCGGCAUGGUCCCAGCCUCCUCGCUGGCGCCGGCUGGGCAACAUUCCUAGGGGACCGUCCCCUGGGUAAUGGCGAAUGGGACCCA [G50U C66G]: the self-cleavage stood at 0.787. As for GGCCGGCGUGGUCCCAGCCUCCUCGCUGGCGCCGUCUGGGCAACAUUCCGAGGGGACCGUCCCCUCGGUAAUGGCGAAUGGGACCCA [A8G G35U], the figure is 0.306; as for GGCCGGCAUGGUCCCAGCGUCCUCGCUGGCGGCGGCUGGGCAACAUUCCGAGGGGACCGUCCCCUCGGUAAUGGCGAAUGGGACCCA [C19G C32G], 0.0462; as for GGCCGGCAUGGUCUCAGCCUCCUCGCUGGCGCCGGCUGGGCACCAUUCCGAGGGGACCGUCCCCUCGGUAAUGGCGAAUGGGACCCA [C14U A43C], 0.364. Regarding GGCCGGCAUGGUCCCAGCCUGCUCGCUGGCGCCGGCUGGGCAACAUUCCGAGGGGACCGUCCCCUCGGUAAUGGCGAAUGGGACCCU [C21G A87U], the self-cleavage was found to be 0.0723. For the variant GGCCGGCAUGGUCCCAGCCUCCUCGCUGGCGCCGGCUGGGCAACAUUCCGAGGGGACGGUCCCCUCGGUAAUGGCGAAUGGGAACCA [C58G C84A], the self-cleavage came to 0.817.

Regarding GGCCGGCAUGGGCCCAGCCUCCUCGCUGGCGACGGCUGGGCAACAUUCCGAGGGGACCGUCCCCUCGGUAAUGGCGAAUGGGACCCA [U12G C32A], the self-cleavage stood at 0.0639. As for GGCCGGCAUGGUCCCAGCCUCCUCGCAGGGGCCGGCUGGGCAACAUUCCGAGGGGACCGUCCCCUCGGUAAUGGCGAAUGGGACCCA [U27A C30G], the figure is 0.166.

Consider GGCCGGCAUGGUCCCAGCCUCCUCGCUGGCGCCGGCGGGGCAACAUUCCGAGCGGACCGUCCCCUCGGUAAUGGCGAAUGGGACCCA [U37G G53C], for which the self-cleavage was 0.145. As for GGCCGCCAUGGUCCCAGCCUCCUCGCUGGAGCCGGCUGGGCAACAUUCCGAGGGGACCGUCCCCUCGGUAAUGGCGAAUGGGACCCA [G6C C30A], the figure is 0.0415.
